Measured values: PMC11973430, “Rubisco packaging and stoichiometric composition of the native β-carboxysome in Synechococcus elongatus PCC7942” (Plant Physiology, 2024)

Molecular target: T1, Rubisco L8S8 hexadecamer (Form IB ribulose-1,5-bisphosphate carboxylase/oxygenase) of Synechococcus elongatus … (Synechococcus elongatus PCC7942 …, UniProt Q31NB3 1-472; Q31NB2 1-111)
T1 construct: Rubisco large subunit RbcL, Synechococcus elongatus PCC7942, GenBank ABB57456.1; 52.4 kDa; Rubisco small subunit RbcS, Synechococcus elongatus PCC7942, GenBank ABB57457.1; 13.3 kDa; Native holoenzyme imaged inside isolated β-carboxysomes; not separated from the other carboxysome proteins; also called Rubisco complex; Form IB Rubisco; source: endogenous, inside β-carboxysomes purified from Syn7942 …
T1 sequence (Q31NB2 whole entry, chain 2 of 2, other chains not shown): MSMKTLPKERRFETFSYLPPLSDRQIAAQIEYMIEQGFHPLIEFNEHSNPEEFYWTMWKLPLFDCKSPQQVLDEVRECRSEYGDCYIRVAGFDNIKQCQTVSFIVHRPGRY
Test: cryo-EM structure; cryoET and subtomogram averaging (emClarity, D4 symmetry) of Rubisco inside isolated native Syn7942 β-carboxysomes (185 carboxysomes) in TEMB buffer (10 mM Tris-HCl pH 8.0, 1 mM EDTA, 10 mM MgCl2, 20 mM NaHCO3); 3.5 Å
Details: partners not purified

B1: Carboxysome scaffolding (linker) protein CcmM of Synechococcus elongatus PCC7942 (natural protein, UniProt Q03513-2 1-324, looked up)
chain: MSAYNGQGRLSSEVITQVRSLLNQGYRIGTEHADKRRFRTSSWQPCAPIQSTNERQVLSELENCLSEHEGEYVRLLGIDTNTRSRVFEALIQRPDGSVPESLGSQPVAVASGGGRQSSYASVSGNLSAEVVNKVRNLLAQGYRIGTEHADKRRFRTSSWQSCAPIQSSNERQVLAELENCLSEHEGEYVRLLGIDTASRSRVFEALIQDPQGPVGSAKAAAAPVSSATPSSHSYTSNGSSSSDVAGQVRGLLAQGYRISAEVADKRRFQTSSWQSLPALSGQSEATVLPALESILQEHKGKYVRLIGIDPAARRRVAELLIQKP
notes: CcmM, Synechococcus elongatus PCC7942, GenBank AAA27306.1; present in the native β-carboxysome as two isoforms, the full-length 58-kDa CcmM58 and the 35-kDa truncated CcmM35 (three SSUL domains each); Mixture of CcmM35 and CcmM58 in the native carboxysome; also called CcmM35; CcmM58; source: endogenous, inside β-carboxysomes purified from Syn7942 (sucrose gradient ultracentrifugation)
Q: B1 was tested. Which “stoichiometry N” value did it give?
A: The value was 4 CcmM SSUL domains per Rubisco L8S8.
